From patent US20100196375A1
Changes are numbered by the printed parent chain.

Target: BHV-1 virus (Cooper strain)
Test: cell-based or functional assay

B1: recombinant scFv3-18L (scFv)
scFv: QAVLTQPSSVSGSLGQRVSITCSGSSSNIGRYGVGWYQQVPGSGLRRIIYGSVSRPSGVPVRFSGSKSGDTATLTISSLQAEDEADYFCATADYTSSPVLFGSGTTLTVLGQSSRSSSGGGSSGGGGSQVQLRESGPSLVKPSQTLSLTCTVSGFSLSGNSVGWVRQTPGKALEWLGNMDGIGTTDYNPALKSRLSITKDNSKSQVSLSLSSVTTEDTATYYCAKCTGAYCWRFDDAYGYDDWGQGLLVTVSS
B1 was tested, and the 50% viral neutralization end point was 5.5 µg/mL, the Percent Plaque reduction at 11 µg/ml, Experiment I was 78.7% and the Percent Plaque reduction at 11 µg/ml, Experiment II was 80%. It also gave a Percent Plaque reduction at 33 µg/ml, Experiment I of 89.3%, a Percent Plaque reduction at 33 µg/ml, Experiment II of 90.5% and a Percent Plaque reduction at 99 µg/ml, Experiment I of 93.4%. For the same binder, the Percent Plaque reduction at 99 µg/ml, Experiment II was 94.7%.

B2: recombinant scFv4m-18L (scFv)
scFv: B1 scFv with S118G, D217G
For B2, the 50% viral neutralization end point was 15 µg/mL, the Percent Plaque reduction at 15 µg/ml, Experiment I was 55.8% and the Percent Plaque reduction at 15 µg/ml, Experiment II was 48.5%. For the same binder, the Percent Plaque reduction at 45 µg/ml, Experiment I was 67%, the Percent Plaque reduction at 45 µg/ml, Experiment II was 70% and the Percent Plaque reduction at 135 µg/ml, Experiment I was 92.4%. The Percent Plaque reduction at 135 µg/ml, Experiment II was 92.6% and the fold higher protein concentration required for virus neutralization, compared with wild type scFv with either 7 or 18 amino acid linker was 2.7 to 5 fold.

B3: recombinant scFv1-7L (scFv)
scFv: QAVLTQPSSVSGSLGQRVSITCSGSSSNIGRYGVGWYQQVPGSGLRRIIYGSVSRPSGVPVRFSGSKSGDTATLTISSLQAEDEADYFCATADYTSSPVLFGSGTTLTVLGQSSRSSQVQLRESGPSLVKPSQTLSLTCTVSGFSLSGNSVGWVRQTPGKALEWLGNMDGIGTTDYNPALKSRLSITKDNSKSQVSLSLSSVTTEDTATYYCAKCTGAYCWRFDDAYGYDDWGQGLLVTVSS
With B3 the 50% viral neutralization end point was 3 µg/mL, the Percent plaque reduction at 24 µg/ml, Experiment I was 86.3% and the Percent plaque reduction at 24 µg/ml, Experiment II was 84.8%. For the same binder, the Percent plaque reduction at 72 µg/ml, Experiment I was 95.9%, the Percent plaque reduction at 72 µg/ml, Experiment II was 94.2% and the Percent plaque reduction at 216 µg/ml, Experiment I was 100%. The Percent plaque reduction at 216 µg/ml, Experiment II was 100%.
